Here are results for two molecules from paper PMC5689087 (Structure (London, England : 1993), 2017).

The target in experiment [1] is human αVβ3 integrin ectodomain (purchased, lyophilized) (human, UniProt P06756 31-992; P05106 27-718). Kind of experiment: SEC.
The target of experiment [2] is human αVβ3 integrin ectodomain (purchased, lyophilized) (human, UniProt P06756;P05106). In words: SPR.

Where no end group is shown, it is not given here. The star is where a group is joined. FITC = O=C1OC2(c3ccc(O)cc3Oc3cc(O)ccc32)c2ccc(NC(=S)*)cc21

Chain of human αVβ3 integrin ectodomain (purchased, lyophilized) (human, UniProt P06756;P05106) (P06756 31-992, chain 1 of 2): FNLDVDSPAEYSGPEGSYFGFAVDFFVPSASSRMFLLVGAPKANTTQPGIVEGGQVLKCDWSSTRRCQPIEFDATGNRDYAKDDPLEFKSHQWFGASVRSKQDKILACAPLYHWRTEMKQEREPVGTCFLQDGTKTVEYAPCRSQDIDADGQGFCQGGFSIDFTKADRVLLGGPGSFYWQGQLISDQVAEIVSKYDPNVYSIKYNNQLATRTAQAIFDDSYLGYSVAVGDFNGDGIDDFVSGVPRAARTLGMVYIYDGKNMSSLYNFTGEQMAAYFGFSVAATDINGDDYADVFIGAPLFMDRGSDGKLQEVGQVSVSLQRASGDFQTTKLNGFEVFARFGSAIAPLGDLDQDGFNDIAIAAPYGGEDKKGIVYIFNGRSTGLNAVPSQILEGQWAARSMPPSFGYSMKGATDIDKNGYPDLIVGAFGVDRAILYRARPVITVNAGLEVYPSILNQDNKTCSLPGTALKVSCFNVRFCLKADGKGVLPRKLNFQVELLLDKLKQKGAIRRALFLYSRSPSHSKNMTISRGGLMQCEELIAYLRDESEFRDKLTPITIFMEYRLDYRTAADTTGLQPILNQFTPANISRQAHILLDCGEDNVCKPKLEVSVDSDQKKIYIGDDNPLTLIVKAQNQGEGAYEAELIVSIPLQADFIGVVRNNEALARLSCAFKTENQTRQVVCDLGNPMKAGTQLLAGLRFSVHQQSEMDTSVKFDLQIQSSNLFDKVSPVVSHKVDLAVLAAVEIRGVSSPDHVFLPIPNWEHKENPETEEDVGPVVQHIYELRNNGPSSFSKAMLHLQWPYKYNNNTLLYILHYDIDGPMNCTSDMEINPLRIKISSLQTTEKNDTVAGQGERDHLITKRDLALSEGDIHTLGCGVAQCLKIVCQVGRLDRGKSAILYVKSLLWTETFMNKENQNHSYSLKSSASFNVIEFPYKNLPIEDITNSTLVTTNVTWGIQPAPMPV
Chain of human αVβ3 integrin ectodomain (purchased, lyophilized) (human, UniProt P06756;P05106) (P05106 27-718, chain 2 of 2): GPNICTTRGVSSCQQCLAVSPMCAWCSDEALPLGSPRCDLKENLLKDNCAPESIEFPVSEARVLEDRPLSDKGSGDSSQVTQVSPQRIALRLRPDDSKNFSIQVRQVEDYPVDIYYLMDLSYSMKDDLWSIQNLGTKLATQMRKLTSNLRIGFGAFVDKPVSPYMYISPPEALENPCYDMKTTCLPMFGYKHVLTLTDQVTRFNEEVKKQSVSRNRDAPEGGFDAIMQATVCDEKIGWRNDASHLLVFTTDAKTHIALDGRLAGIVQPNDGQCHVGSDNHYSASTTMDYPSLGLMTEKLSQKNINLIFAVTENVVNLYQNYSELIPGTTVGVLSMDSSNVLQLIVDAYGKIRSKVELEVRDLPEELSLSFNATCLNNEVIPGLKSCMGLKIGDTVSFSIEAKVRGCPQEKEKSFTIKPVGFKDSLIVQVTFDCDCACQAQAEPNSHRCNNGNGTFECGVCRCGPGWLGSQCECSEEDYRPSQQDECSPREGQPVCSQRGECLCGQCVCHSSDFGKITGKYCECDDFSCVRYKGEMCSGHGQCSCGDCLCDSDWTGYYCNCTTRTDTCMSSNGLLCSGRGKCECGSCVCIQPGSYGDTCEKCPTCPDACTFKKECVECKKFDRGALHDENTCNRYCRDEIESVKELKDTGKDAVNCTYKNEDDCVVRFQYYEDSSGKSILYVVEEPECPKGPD
Chain of human αVβ3 integrin ectodomain (purchased, lyophilized) (human, UniProt P06756 31-992; P05106 27-718) (P06756 31-992, chain 1 of 2): as the sequence (P06756 31-992, chain 1 of 2) above
Chain of human αVβ3 integrin ectodomain (purchased, lyophilized) (human, UniProt P06756 31-992; P05106 27-718) (P05106 27-718, chain 2 of 2): as the sequence (P05106 27-718, chain 2 of 2) above

{FITC}-GRGDSPK [FITC-GRGDSPK peptide]: the binding result in experiment [1] is “binds”.

B1: Fab LM609 (recombinant antigen-binding fragment of the mouse monoclonal antibody LM609) (Fab, V domains shown)
VH: EVQLEESGGGLVKPGGSLKLSCAASGFAFSSYDMSWVRQIPEKRLEWVAKVSSGGGSTYYLDTVQGRFTISRDNAKNTLYLQMSSLNSEDTAMYYCARHNYGSFAYWGQGTLVTVSA
VL: ELVMTQTPATLSVTPGDSVSLSCRASQSISNHLHWYQQKSHESPRLLIKYASQSISGIPSRFSGSGSGTDFTLSINSVETEDFGMYFCQQSNSWPHTFGGGTKLEIK
Regarding B1, in experiment [2], binding was put at a Kd of 23 nM; the koff (as a rule, a measure of how fast the partners let go of each other) came to 0.0034 s⁻¹; the on-rate constant (kon) (in general, the second-order rate constant of association) was 150000 M⁻¹ s⁻¹.
